{"source": "patent US20240218035", "proteins": {"B1": {"name": "active hepatocyte growth factor activator (active HGFA), as activated HGFA culture supernatant from CHO cells (protein)", "chain": "VQLSPDLLATLPEPASPGRQACGRRHKKRTFLRPRIIGGSSSLPGSHPWLAAIYIGDSFCAGSLVHTCWVVSAAHCFSHSPPRDSVSVVLGQHFFNRTTDVTQTFGIEKYIPYTLYSVFNPSDHDLVLIRLKKKGDRCATRSQFVQPICLPEPGSTFPAGHKCQIAGWGHLDENVSGYSSSLREALVPLVADHKCSSPEVYGADISPNMLCAGYFDCKSDACQGDSGGPLACEKNGVAYLYGIISWGDGCGRLHKPGVYTRVANYVDWINDRIRPPRRLVAPS"}}, "biological_target": "inactive hepatocyte growth factor (pro-HGF), single-stranded form, in CHO culture supernatant", "sequence (chain, as listed by the source)": "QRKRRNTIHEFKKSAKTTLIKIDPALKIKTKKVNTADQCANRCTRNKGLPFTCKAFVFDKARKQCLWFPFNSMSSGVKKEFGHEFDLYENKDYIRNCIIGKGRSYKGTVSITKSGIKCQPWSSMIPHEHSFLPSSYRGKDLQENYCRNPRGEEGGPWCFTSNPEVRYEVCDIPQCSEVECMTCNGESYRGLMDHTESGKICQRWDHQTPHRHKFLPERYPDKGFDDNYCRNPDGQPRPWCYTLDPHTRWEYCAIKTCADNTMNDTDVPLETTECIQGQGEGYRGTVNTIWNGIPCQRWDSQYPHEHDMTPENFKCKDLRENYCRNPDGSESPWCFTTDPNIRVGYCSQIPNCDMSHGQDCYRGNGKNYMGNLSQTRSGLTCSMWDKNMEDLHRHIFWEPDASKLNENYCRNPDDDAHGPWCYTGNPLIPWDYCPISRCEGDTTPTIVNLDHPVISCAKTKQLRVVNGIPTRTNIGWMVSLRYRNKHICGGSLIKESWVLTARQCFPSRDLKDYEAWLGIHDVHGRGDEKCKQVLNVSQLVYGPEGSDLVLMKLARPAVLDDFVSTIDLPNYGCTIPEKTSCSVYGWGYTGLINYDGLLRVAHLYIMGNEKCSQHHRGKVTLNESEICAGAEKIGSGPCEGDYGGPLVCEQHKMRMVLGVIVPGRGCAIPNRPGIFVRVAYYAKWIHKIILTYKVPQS"}
{"protein": "B1", "values": [{"measurement": "activation state of pro-HGF confirmed with SDS-PAGE (conversion of the single strand into α and β chains) after about 20 hours of reaction at 25° C.", "result": "under a reductive condition after activation the single strand substance had disappeared and separated into α and β chains, and thus sufficient activation of pro-HGF was confirmed"}]}
